Experimental data from patent publication US20140179594A1, “STREPTOCOCCUS BACTERIOPHAGE LYSINS FOR TREATMENT OF GRAM POSITIVE BACTERIA IN COMPANION ANIMALS AND LIVESTOCK” (priority 2011, published 2014).
Read-outs that look alike come from different tables or passages of the source.

Experiments:
Assay type in all cases: cell-based
S. oralis 35037 = test: ΔPlySs1 OD600 lysis, 1 hr
S. mutans U159 = test: ΔPlySs1 OD600 lysis, 1 hr
S. agalactiae 090R = test: ΔPlySs1 OD600 lysis, 1 hr
B. anthracis ΔSterne = tested on: B. anthracis ΔSterne
S. suis ST11 = test: ΔPlySs1 OD600 lysis, 1 hr
Procedure: (§1) Given the above experiments, the following optimal buffering conditions were employed for all further in vitro experiments with ΔPlySs1: 20 mM phosphate buffer, pH=7.8, 2 mM EDTA. A range of lysin concentrations, from 6.5-130 μg/ml, were introduced to live S. suis cells in this buffer. Three strains were considered particularly relevant: 7711, the serotype 7 strain that encodes PlySs1; 5735, the serotype 2 reference strain; and 7997, a highly virulent serotype 9 strain. In terms of bacterial viability, only the highest PlySs1-concentration (130 μg/ml) led to a >90% decrease in CFUs for 7711, S735, and 7997 after 1 hr treatment (TABLE 2). The lysin was also tested against actively-dividing cells in broth culture (strain 7711) (FIG. 20).
(§2) ΔPlySs1 was further tested against a panel of 19 other S. suis strains of diverse serotypes, as well as other species of Gram-positive bacteria. The same lysin concentrations were used as above. For each dosage, the observed lysis values after 1 hr are listed in TABLE 3 and TABLE 4, and the information is summarized graphically in FIG. 21.

S. suis 10 (ST2) = test: ΔPlySs1 OD600 lysis, 1 hr
Procedure: as §1, §2

S. uberis 27598 = test: ΔPlySs1 OD600 lysis, 1 hr
M. luteus 4698 = test: ΔPlySs1 OD600 lysis, 1 hr

B1: ΔPlySs1: truncated PlySs1 lysin with N-terminal enzymatic and central binding domains, N-terminal 254 amino acids, SEQ ID NO:2 (protein, listed as Streptococcus suis)
chain: MTINLETSIRWMSDRVGKVSYSMDYRNGPNSYDCSSAVYYALMAGGAISAGWAVNTEYMHDWLIRNGYVLVAENKPFNAQRHDVCILGKRGYSSGAGGHVVIFVDNVNVIHCNYARNGISIDNYNQVHRGMYYYLYRPANQPSISNKSLDQLVKETLAGVHGNGDTRKASLGSQYEAVMAVINGKASASEKSDEELAREVLAGKHGAGEDRKRSLGPRYEPVQAKVNELLKAKEKPSETAKNEPQTVQFKEDGDL
1-hour treated/untreated OD600-ratio (S. oralis 35037; 6.5 μg/ml): 0.30 | 1-hour treated/untreated OD600-ratio (S. oralis 35037; 13 μg/ml): 0.13 | 1-hour treated/untreated OD600-ratio (S. oralis 35037; 30 μg/ml): 0.08 | 1-hour treated/untreated OD600-ratio (S. oralis 35037; 65 μg/ml): 0.07 | 1-hour treated/untreated OD600-ratio (S. oralis 35037; 130 μg/ml): 0.04 | 1-hour treated/untreated OD600-ratio (S. mutans U159; 6.5 μg/ml): 0.95 | 1-hour treated/untreated OD600-ratio (S. mutans U159; 13 μg/ml): 0.99 | 1-hour treated/untreated OD600-ratio (S. mutans U159; 30 μg/ml): 0.94 | 1-hour treated/untreated OD600-ratio (S. mutans U159; 65 μg/ml): 0.76 | 1-hour treated/untreated OD600-ratio (S. mutans U159; 130 μg/ml): 0.85 | 1-hour treated/untreated OD600-ratio (S. agalactiae 090R; 6.5 μg/ml): 0.97 | 1-hour treated/untreated OD600-ratio (S. agalactiae 090R; 13 μg/ml): 0.99 | 1-hour treated/untreated OD600-ratio (S. agalactiae 090R; 30 μg/ml): 0.97 | 1-hour treated/untreated OD600-ratio (S. agalactiae 090R; 65 μg/ml): 0.98 | 1-hour treated/untreated OD600-ratio (S. agalactiae 090R; 130 μg/ml): 0.93 | 1-hour treated/untreated OD600-ratio (B. anthracis ΔSterne; 6.5 μg/ml): 1.02 | 1-hour treated/untreated OD600-ratio (B. anthracis ΔSterne; 30 μg/ml): 1.02 | 1-hour treated/untreated OD600-ratio (B. anthracis ΔSterne; 65 μg/ml): 0.98 | 1-hour treated/untreated OD600-ratio (B. anthracis ΔSterne; 130 μg/ml): 0.90 | 1-hour treated/untreated OD600-ratio (S. suis ST11; 6.5 μg/ml): 0.64 | 1-hour treated/untreated OD600-ratio (S. suis ST11; 13 μg/ml): 0.47 | 1-hour treated/untreated OD600-ratio (S. suis ST11; 30 μg/ml): 0.32 | 1-hour treated/untreated OD600-ratio (S. suis ST11; 65 μg/ml): 0.19 | 1-hour treated/untreated OD600-ratio (S. suis ST11; 130 μg/ml): 0.07 | 1-hour treated/untreated OD600-ratio (S. suis 10 (ST2); 6.5 μg/ml): 0.29 | 1-hour treated/untreated OD600-ratio (S. suis 10 (ST2); 13 μg/ml): 0.18 | 1-hour treated/untreated OD600-ratio (S. suis 10 (ST2); 30 μg/ml): 0.10 | 1-hour treated/untreated OD600-ratio (S. suis 10 (ST2); 65 μg/ml): 0.05 | 1-hour treated/untreated OD600-ratio (S. suis 10 (ST2); 130 μg/ml): 0.02 | 1-hour treated/untreated OD600-ratio (S. uberis 27598; 6.5 μg/ml): 0.42 | 1-hour treated/untreated OD600-ratio (S. uberis 27598; 13 μg/ml): 0.23 | 1-hour treated/untreated OD600-ratio (S. uberis 27598; 30 μg/ml): 0.16 | 1-hour treated/untreated OD600-ratio (S. uberis 27598; 65 μg/ml): 0.14 | 1-hour treated/untreated OD600-ratio (S. uberis 27598; 130 μg/ml): 0.12 | 1-hour treated/untreated OD600-ratio (M. luteus 4698; 6.5 μg/ml): 0.84 | 1-hour treated/untreated OD600-ratio (M. luteus 4698; 13 μg/ml): 0.90 | 1-hour treated/untreated OD600-ratio (M. luteus 4698; 30 μg/ml): 0.83 | 1-hour treated/untreated OD600-ratio (M. luteus 4698; 65 μg/ml): 0.87 | 1-hour treated/untreated OD600-ratio (M. luteus 4698; 130 μg/ml): 0.82
